Assay results taken from IntAct's records for PubMed 22927794.

B1: Long arms of the bivalent protein 1 (Caenorhabditis elegans), Q17604 (parent)
chain: MVSHKKNDRPRPLWILKIHKRLSLFEFKRYATGIGKDDGQDISWVLKGNAKNNVYQVTVETMENCETDECKKVIWVPDELAESTGTMFEDFKEDQPQESVSSISNNEANWGSSVNELDENYEKMQKEETFDPYDSDSDTSEDSDFDEDFEDSDKTMCSGQS

Variants of: B1
Settings: with glc7b_caeel gsp-2, P48727
Chain of glc7b_caeel gsp-2, P48727 (P48727 whole entry): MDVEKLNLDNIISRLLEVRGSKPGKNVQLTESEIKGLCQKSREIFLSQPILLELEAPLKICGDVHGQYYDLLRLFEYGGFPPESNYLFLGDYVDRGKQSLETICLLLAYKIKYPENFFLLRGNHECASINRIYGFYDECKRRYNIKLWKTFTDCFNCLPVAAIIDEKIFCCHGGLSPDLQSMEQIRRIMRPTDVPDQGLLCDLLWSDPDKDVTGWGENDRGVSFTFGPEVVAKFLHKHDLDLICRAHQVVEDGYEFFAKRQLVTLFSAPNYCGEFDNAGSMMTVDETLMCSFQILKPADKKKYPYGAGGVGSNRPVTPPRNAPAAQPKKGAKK

Row | effect of a mutation on the interaction | Variant
1 | increasing interaction strength | MVSHKKNDRPRPLWILKIHKRLSLFEFKRYATGIGKDDGQDISWVLKGNAKNNVYQVTVETMENCETDECKKAIAVPDELAESTGTMFEDFKEDQPQESVSSISNNEANWGSSVNELDENYEKMQKEETFDPYDSDSDTSEDSDFDEDFEDSDKTMCSGQS [V73A;W75A]

Variants of: B1
Settings: with glc7a_caeel gsp-1, Q27497
Chain of glc7a_caeel gsp-1, Q27497 (Q27497 whole entry): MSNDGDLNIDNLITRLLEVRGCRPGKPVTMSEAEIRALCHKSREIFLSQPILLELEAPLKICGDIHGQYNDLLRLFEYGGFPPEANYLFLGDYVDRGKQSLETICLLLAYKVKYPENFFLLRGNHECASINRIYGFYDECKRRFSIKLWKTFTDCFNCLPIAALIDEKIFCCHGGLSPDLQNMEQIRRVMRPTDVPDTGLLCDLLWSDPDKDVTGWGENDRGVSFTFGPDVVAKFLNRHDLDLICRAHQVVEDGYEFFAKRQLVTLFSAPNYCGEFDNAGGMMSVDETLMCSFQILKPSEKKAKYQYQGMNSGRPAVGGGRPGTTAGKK

Row | effect of a mutation on the interaction | Variant
2 | decreasing interaction strength | MVSHKKNDRPRPLWILKIHKRLSLFEFKRYATGIGKDDGQDISWVLKGNAKNNVYQVTVETMENCETDECKKAIAVPDELAESTGTMFEDFKEDQPQESVSSISNNEANWGSSVNELDENYEKMQKEETFDPYDSDSDTSEDSDFDEDFEDSDKTMCSGQS [V73A;W75A]
